This note sets out measurements from publication PMC6141027.

The test deals with griffithsin (GRFT). Briefly: AUC.

The term stoichiometry N denotes a count of units in the complex or per binding partner. Consider griffithsin (GRFT) (natural protein), for which the stoichiometry N worked out at 2.
